1 substance from patent US20140193357A1 can be followed below.

Several values for one entry are separate records, joined by “and”; a condition that tells them apart may be missing. Identical values can stand only once.

This test concerns the target T1, G-CSF receptor on the surface of murine myeloid leukemia cell line G-NFS-60 (murine (cell line G-NFS-60)) (UniProt P40223).
T1 sequence (looked up): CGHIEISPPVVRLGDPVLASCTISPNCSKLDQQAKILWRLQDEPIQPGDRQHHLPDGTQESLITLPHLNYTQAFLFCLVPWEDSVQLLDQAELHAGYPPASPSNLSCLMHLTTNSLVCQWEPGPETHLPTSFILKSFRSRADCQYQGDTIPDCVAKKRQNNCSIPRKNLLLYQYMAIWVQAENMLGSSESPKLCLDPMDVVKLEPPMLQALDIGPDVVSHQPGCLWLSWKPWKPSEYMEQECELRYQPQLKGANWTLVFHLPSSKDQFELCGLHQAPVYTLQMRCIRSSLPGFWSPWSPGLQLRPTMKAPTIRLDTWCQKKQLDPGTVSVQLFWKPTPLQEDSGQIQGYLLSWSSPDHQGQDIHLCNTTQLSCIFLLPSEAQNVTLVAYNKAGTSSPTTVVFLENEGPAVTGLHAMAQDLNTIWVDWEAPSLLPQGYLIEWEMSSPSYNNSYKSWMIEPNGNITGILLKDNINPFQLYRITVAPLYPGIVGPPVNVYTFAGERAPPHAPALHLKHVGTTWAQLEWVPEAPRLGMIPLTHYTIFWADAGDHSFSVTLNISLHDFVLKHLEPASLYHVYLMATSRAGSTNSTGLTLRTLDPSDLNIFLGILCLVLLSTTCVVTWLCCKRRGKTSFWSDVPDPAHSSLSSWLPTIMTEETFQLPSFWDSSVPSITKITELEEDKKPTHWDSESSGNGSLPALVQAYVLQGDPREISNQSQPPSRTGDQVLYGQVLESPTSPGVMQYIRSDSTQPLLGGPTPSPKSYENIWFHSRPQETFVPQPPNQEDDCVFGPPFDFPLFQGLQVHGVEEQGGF
The test is described as follows: cell-based or functional assay.

With “Monomer G-CSF (from UniProt P09919 31-204) (ligand)”, the Biologic activity (proliferation of G-NFS-60 cells, MTS dye) was 1e+08 IU/mg and 6e+07 IU/ml.
